Data published in PMC4051775, “Intestinal Cell Barrier Function In Vitro Is Severely Compromised by Keratin 8 and 18 Mutations Identified in Patients with Inflammatory Bowel Disease” (PLoS ONE, 2014).

T1: keratin 8 wild type recombinant protein (human, UniProt P05787 1-483)
T1 construct: keratin 8 (K8), wild type, recombinant protein; also called K8 WT; K8
T1 sequence (looked up): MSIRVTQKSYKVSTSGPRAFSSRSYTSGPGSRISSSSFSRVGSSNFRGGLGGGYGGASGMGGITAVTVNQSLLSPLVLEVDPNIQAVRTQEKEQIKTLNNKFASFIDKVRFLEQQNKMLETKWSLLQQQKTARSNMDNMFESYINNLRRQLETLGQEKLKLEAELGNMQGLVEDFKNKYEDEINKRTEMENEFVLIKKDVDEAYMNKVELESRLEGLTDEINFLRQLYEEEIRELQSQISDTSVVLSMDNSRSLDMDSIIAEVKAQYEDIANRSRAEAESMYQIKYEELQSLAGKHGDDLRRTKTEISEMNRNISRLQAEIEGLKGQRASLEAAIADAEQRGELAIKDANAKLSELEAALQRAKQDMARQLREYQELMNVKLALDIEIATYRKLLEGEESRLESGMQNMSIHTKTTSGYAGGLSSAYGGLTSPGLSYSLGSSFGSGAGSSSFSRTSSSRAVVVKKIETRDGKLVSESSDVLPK

T2: keratin 8 K464N recombinant protein (human, UniProt P05787 1-483, K464N)
T2 construct: keratin 8 (K8) with the IBD patient mutation K464N, recombinant protein; The mutation was found in IBD patients; also called K8 K464N
T2 sequence (looked up): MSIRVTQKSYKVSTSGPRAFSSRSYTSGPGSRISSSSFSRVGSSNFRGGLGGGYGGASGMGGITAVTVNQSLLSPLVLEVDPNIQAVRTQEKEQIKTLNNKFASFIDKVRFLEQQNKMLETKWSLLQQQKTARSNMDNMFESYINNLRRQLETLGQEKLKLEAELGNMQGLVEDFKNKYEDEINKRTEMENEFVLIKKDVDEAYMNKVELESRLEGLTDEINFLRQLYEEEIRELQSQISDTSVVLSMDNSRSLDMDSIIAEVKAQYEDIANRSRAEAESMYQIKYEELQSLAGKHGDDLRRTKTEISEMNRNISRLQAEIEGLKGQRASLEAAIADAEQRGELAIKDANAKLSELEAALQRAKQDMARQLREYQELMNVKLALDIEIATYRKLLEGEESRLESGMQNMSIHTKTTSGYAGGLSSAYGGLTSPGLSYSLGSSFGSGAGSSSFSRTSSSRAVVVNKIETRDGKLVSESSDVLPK

T3: keratin 8 G62C recombinant protein (human, UniProt P05787 1-483, G62C)
T3 construct: keratin 8 (K8) with the IBD patient mutation G62C, recombinant protein; The mutation was found in IBD patients; also called K8 G62C
T3 sequence (looked up): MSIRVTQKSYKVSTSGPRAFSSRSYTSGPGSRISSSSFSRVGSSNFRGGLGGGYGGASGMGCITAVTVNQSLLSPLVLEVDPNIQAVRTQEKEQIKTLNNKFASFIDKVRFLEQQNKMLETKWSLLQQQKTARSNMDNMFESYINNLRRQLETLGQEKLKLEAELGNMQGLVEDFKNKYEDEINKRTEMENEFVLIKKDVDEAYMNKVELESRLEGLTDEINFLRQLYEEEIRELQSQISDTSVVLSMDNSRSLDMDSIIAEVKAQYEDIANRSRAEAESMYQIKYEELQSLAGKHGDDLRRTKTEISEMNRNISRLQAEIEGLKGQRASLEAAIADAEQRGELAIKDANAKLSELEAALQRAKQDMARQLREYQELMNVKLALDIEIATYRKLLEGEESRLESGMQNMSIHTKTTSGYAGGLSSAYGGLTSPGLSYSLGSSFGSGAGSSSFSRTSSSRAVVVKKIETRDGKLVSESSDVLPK


Experiments:
Settings in all cases: both partners purified
[1] = biological target: T1, keratin 8 wild type recombinant protein; assay: SPR; published SPR data of Owens et al. (ref. 26) re-analysed here with ENZO: Enzyme Kinetics to calculate Kd; K8 wild type or mutant in solution, wild type K18 partner immobilised
[2] = biological target: T2, keratin 8 K464N recombinant protein; assay: as above
[3] = biological target: T3, keratin 8 G62C recombinant protein; assay: as above
[4] = biological target: T1, keratin 8 wild type recombinant protein; assay: SPR; published SPR data of Owens et al. (ref. 26) re-analysed here with ENZO: Enzyme Kinetics to calculate Kd; monomeric K18 wild type or S230T in solution, wild type K8 immobilised

Kd [1] [nM]	Kd [2] [nM]	Kd [3] [nM]	Kd [4] [nM]	Binder
8.5	13.4	26.2	8.5	keratin 18 wild type recombinant protein (natural protein, human, UniProt P05783 1-430, looked up, keratin 18 (K18), wild type, recombinant protein; also called K18 WT; K18) MSFTTRSTFSTNYRSLGSVQAPSYGARPVSSAASVYAGAGGSGSRISVSRSTSFRGGMGSGGLATGIAGGLAGMGGIQNEKETMQSLNDRLASYLDRVRSLETENRRLESKIREHLEKKGPQVRDWSHYFKIIEDLRAQIFANTVDNARIVLQIDNARLAADDFRVKYETELAMRQSVENDIHGLRKVIDDTNITRLQLETEIEALKEELLFMKKNHEEEVKGLQAQIASSGLTVEVDAPKSQDLAKIMADIRAQYDELARKNREELDKYWSQQIEESTTVVTTQSAEVGAAETTLTELRRTVQSLEIDLDSMRNLKASLENSLREVEARYALQMEQLNGILLHLESELAQTRAEGQRQAQEYEALLNIKVKLEAEIATYRRLLEDGEDFNLGDALDSSNSMQTIQKTTTRRIVDGKVVSETNDTKVLRH
			161	keratin 18 S230T recombinant protein (natural protein, human, UniProt P05783 1-430, looked up, keratin 18 (K18) with the variation S230T found in an IBD patient and in controls, recombinant protein; Natural variant, earlier designated a polymorphism; also called K18 S230T) MSFTTRSTFSTNYRSLGSVQAPSYGARPVSSAASVYAGAGGSGSRISVSRSTSFRGGMGSGGLATGIAGGLAGMGGIQNEKETMQSLNDRLASYLDRVRSLETENRRLESKIREHLEKKGPQVRDWSHYFKIIEDLRAQIFANTVDNARIVLQIDNARLAADDFRVKYETELAMRQSVENDIHGLRKVIDDTNITRLQLETEIEALKEELLFMKKNHEEEVKGLQAQIATSGLTVEVDAPKSQDLAKIMADIRAQYDELARKNREELDKYWSQQIEESTTVVTTQSAEVGAAETTLTELRRTVQSLEIDLDSMRNLKASLENSLREVEARYALQMEQLNGILLHLESELAQTRAEGQRQAQEYEALLNIKVKLEAEIATYRRLLEDGEDFNLGDALDSSNSMQTIQKTTTRRIVDGKVVSETNDTKVLRH
